Experiments:
[1] = biological target: T1, SARS-CoV-2 nucleocapsid (N) protein (SARS-CoV-2, UniProt P0DTC9 2-419); assay: SV-AUC + ITC global fit; […], pH 7.4; ITC at 20 C; […] (137 mM NaCl); details: protein: commercial; tags: C-terminal His-tag; chain copies: 2; single strand
[2] = biological target: T1, SARS-CoV-2 nucleocapsid (N) protein; assay: SV-AUC; […], pH 7.4; ITC at 20 C; […] (137 mM NaCl); details: protein: commercial; tags: C-terminal His-tag; chain copies: 2; single strand

Binder | Kd [2] [nM] | further results
TTTTTT (ssDNA) [T6] |  | Kd [1]: 600 nM
GTGT (ssDNA) [(GT)2] | > 10000 | 
TTTTTTTTTT (ssDNA) [T10] | < 100 | 
TTTTTTTTTTTTTTTTTTTT (ssDNA) [T20] |  | binding result [2]: binds

— publication doi:10.1101/2021.02.08.430344
